Measured values: patent US6579848B1, “Depigmenting activity of agouti signal protein and peptides thereof” (The United States of America as represented by the …, priority 1995, dated 2003)

Tests used:
Format in all cases: cell-based, murine
tyrosinase [1] = assay: DOPA oxidase enzyme assay on extracts of treated melan-a cells; details: extracts of melan-a cells cultured 5 days; 10 nM
Experimental: (§1) Assays for melanogenic catalytic activities as described below were carried out at pH 6.8, 37° C. for 60 minutes. (1) Tyrosine hydroxylase activity was measured using the [^3H]tyrosine assay (Hearing and Ekel, 1976; Hearing, 1987). This method specifically measures the tritiated water produced during the hydroxylation of tyrosine to DOPA. (2) DOPA oxidase activity was measured using incorporation of [3-^14C]DOPA into acid-insoluble melanin as detailed previously (Aroca et al., 1993). (3) DOPAchrome tautomerase activity was measured by HPLC as the disappearance of DOPAchrome substrate and the production of DHICA rather than DHI; data are converted to pmol products by comparison with known standards. The HPLC assay was detailed previously (Palumbo et al., 1987; Tsukamoto et al., 1992). (4) DHI oxidase and DHICA oxidase activities were measured by HPLC as the disappearance of these substrates from reaction mixtures compared to controls for spontaneous auto-oxidation; data are converted to pmol by comparison with known standard (Aroca et al., 1993). (5) Melanin production was measured using incorporation of [^14C]tyrosine into acid-insoluble melanin, also as detailed previously (Hearing and Ekel, 1976; Hearing, 1987); pmol melanin produced are calculated from the radioactive product. […]

tyrosinase [2] = assay: Northern blotting of tyrosinase RNA in melan-a cells; details: for RNA level of tyrosinase: 5 days
Experimental: These techniques were performed as described previously (Aroca et al., 1993). Briefly, 2.0 μg of mRNA, isolated using a total RNA isolation kit and mRNA purification kit (Promega, Madison, Wis.), were electrophoresed and then blotted to Sure-Blot nylon membranes (Oncor, Gaithersburg, Md.), hybridized with ^32P-labeled probes, dehybridized and rehybridized with other probes again as necessary. TYRS-J, the probe specific for tyrosinase, was kindly provided by Drs. H. Yamamoto and T. Takeuchi, Sendai, Japan and is described in Yamamoto et al Japan J. Genetics Vol 62:271-274, 1987. pMT4, specific for TRP1, was provided by Dr. S. Shibahara, Sendai, Japan and is described in Shibahara, S. et al Nucleic Acid Res. Vol 14:2413-2427, 1986. TRP2a, specific for TRP2 was provided by Dr. I. Jackson, Edinburgh, Scotland and is described in Jackson, I et al. EMBO Vol 11:527-535, 1992. gp100, specific for silver, was provided by Dr. Y. Kawakami, Bethesda, Md. and is described in Kawakami et al PNAS, Vol. 91, 6458-6462, 1994.
Recombinant agouti protein was purified from baculovirus system by Dr. Michael Ollmann in Dr. Gregory Barsh's laboratory by methods known in the art. 2×10^6 cells were seeded per 15 cm diameter dish. The medium was changed everyday, and fresh agouti protein and/or αMSH added everyday usually at 10 nM. To examine transcriptional regulation, total RNA was isolated and Northern blotting performed by methods described in Example 1. The A26 probe to the MSH-R was provided by Dr. R. Cone and is described in Mountjoy et al. Science 257:1248-1251, 1992. At the translational level, metabolic labeling was used in conjunction with immunoprecipitation as described in Example 1. Western blotting and enzyme assay was used to examine function.
First, it was determined whether the agouti protein had any effect on tyrosinase expression by Northern blotting. After 24 hours, the cells were harvested, total RNA isolated and hybridized with a probe for tyrosinase and detected by a phosphoimager. The activity of each band was measured by phosphoimager and the % control was corrected using GAPDH as a standard. […] It should be noted that in vivo, pheomelanin is synthesized within 24 hours after agouti RNA is apparent. Longer incubation times were also examined. 10 nM of agouti protein was added for 1, 2 or 4 days.
Total RNA was extracted from cells using an RNeasy total RNA isolation kit (QIAGEN, Catsworth, Calif.), following the manufacturer's instructions. 20 μg of total RNA was denatured, electrophoresed through 1.0% agarose gels, and transferred overnight at 23° C. to SureBlot nylon hybridization membranes (Oncor, Gaithersburg, Md.) in the standard manner. […]

melan-a cells = assay: Melanin production assay on extracts of treated melan-a cells; details: extracts of melan-a cells cultured 5 days; 10 nM
Experimental: as §1

Molecule	DOPA oxidase (tyrosinase [1]) [pmol/μg protein/hr]	RNA level of tyrosinase (tyrosinase [2]; 10 nM)	melanin production (melan-a cells) [pmol/μg protein/hr]	expression of tyrosinase (RNA) (tyrosinase [2]; 10 nM, 2 or 4 days incubation)	expression of tyrosinase (RNA, % control corrected using GAPDH) (tyrosinase [2]; 24 hours, 10 nM and 1 nM)
α-melanocyte stimulating hormone [MSH, reference compound]	197.5 ± 17.4	almost a twofold increase	6.3 ± 0.5		
agouti protein: Recombinant murine agouti signal protein purified from a baculovirus expression system (protein) MDVTRLLLATLVSFLCFFTVHSHLALEETLGDDRSLRSDSSMNSLDFSSVSIVALNKKSKKISRKEAEKRKRSSKKKASMKKVARPPPPSPCVATRDSCKPPAPACCDPCASCQCRFFGSACTCRVLNPNC	−2.6 ± 3.4	nearly a fivefold decrease	0.22 ± 0.0	complete inhibition by day 2	significant dose dependent decreases
